Laboratory results: patent publication US20190119345A1 (published 2019)

B1: human NKG2D (receptor)
chain: IPLTESYCGPCPKNWICYKNNCYQFFDESKNWYESQASCMSQNASLLKVYSKEDQDLLKLVKSYHWMGLVHIPTNGSWQWEDGSILSPNLLTIIEMQKGDCALYASSFKGYIENCSTPNTYICMQRTV

What was measured:
[1] = target: OMCP (WT OMCPBR, cowpox virus Brighton Red) (cowpox virus (Brighton Red strain)); assay: printed as 'binding coefficients'; method not stated
human NKG2D = target: B1; assay: as above

Binder | Kd [1] [nM] | Kd (human NKG2D) [nM]
B1 | 0.1 | –
KYK-2 antibody (antibody, V domains shown) VH: QVQLVESGGGLVKPGGSLRLSCAASGFTFSSYGMHWVRQAPGKGLEWVAFIRYDGSNKYYADSVKGRFTISRDNSKNTLYLQMNSLRAEDTAVYYCAKDRGLGDGTYFDYWGQGTTVTVSS VL: QSALTQPASVSGSPGQSITISCSGSSSNIGNNAVNWYQQLPGKAPKLLIYYDDLLPSGVSDRFSGSKSGTSAFLAISGLQSEDEADYYCAAWDDSLNGPVFGGGTKLTVL | – | 6
KYK-1 antibody (antibody, V domains shown) VH: EVQLVESGGGVVQPGGSLRLSCAASGFTFSSYGMHWVRQAPGKGLEWVAFIRYDGSNKYYADSVKGRFTISRDNSKNTLYLQMNSLRAEDTAVYYCAKDRFGYYLDYWGQGTLVTVSS VL: QPVLTQPSSVSVAPGETARIPCGGDDIETKSVHWYQQKPGQAPVLVIYDDDDRPSGIPERFFGSNSGNTATLSISRVEAGDEADYYCQVWDDNNDEWVFGGGTQLTVL | – | 27
